Source: US20210340206A1 (SYLUS, published 2021)
Where two headings read alike, the source gives them in different places.

T1: Soluble mouse EPOR chimera protein (R&D Systems) (mouse, UniProt P14753 25-249)
T1 construct: extracellular domain; Bought from R&D Systems; Amine-coupled to the SPR chip; also called erythropoietin receptor
T1 sequence (looked up): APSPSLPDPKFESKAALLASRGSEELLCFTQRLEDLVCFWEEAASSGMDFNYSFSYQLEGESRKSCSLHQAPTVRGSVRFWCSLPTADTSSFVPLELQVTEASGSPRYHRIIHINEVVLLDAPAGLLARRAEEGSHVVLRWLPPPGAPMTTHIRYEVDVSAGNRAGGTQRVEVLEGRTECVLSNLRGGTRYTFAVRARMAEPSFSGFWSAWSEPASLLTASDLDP

B1: ML1 (peptide)
peptide: LQLHVDKAVSGLRSLTTLLRALG
notes: Synthetic monomer made by solid phase peptide synthesis; also called erythropoietin-derived peptide ML1

Key:
[1] = biological target: T1, Soluble mouse EPOR chimera protein (R&D …); assay: SPR, mouse EPOR chimera amine-coupled to chip, peptide as analyte
Procedure: The SPR technique is to measure interactions between biomolecules in real-time by using an optical principle without specific labeling, and is a system analyzing affinity between two molecules and kinetics, i.e., an association rate (Ka) and a dissociation rate (Kd).
In detail, real-time SPR analysis was performed using Reichert SPR Biosensor SR 7500C instrument (Reichert Inc., NY, USA). Soluble mouse EPOR chimera proteins (R&D Systems, Minneapolis, Minn., USA) were covalently linked to a carboxymethylated dextran matrix-coated chip (BR-1005-39, Pharmacia Biosensor AB) by an amine coupling procedure using an amine coupling kit (BR-1000-50, GE Healthcare, USA) in accordance with manufacturer's instructions. […] For signal normalization, DMSO was applied at a flow rate of 5 μl/minute, and after each binding cycle, the sensor chip was regenerated by injecting 25 mM acetic acid at a flow rate of 20 μl/minute.

[2] = biological target: T1, Soluble mouse EPOR chimera protein (R&D …); assay: as above; remark: listed apart in the source

| Binder | Kd [1] [µM] | Kd [2] [µM] |
| --- | --- | --- |
| DKAVSGLRSLTTLLRALGAQKEAI (Synthetic monomer) [ML4] | 10 |  |
| SGLRSLTTLLRALG (Synthetic monomer) [ML5] | 0.329 |  |
| SGLRSLTTLLRALGAQKEAI (Synthetic monomer) [ML6] | 900 |  |
| DKAVSGLRSLTTLLRAL (Synthetic monomer) [ML8] | 444 |  |
| LQLHVLKRVSGLLSHTMLLKALG (Synthetic monomer) [ML1-1] | 1.06 |  |
| B1 | 6.46 | 6.46 |
| LDLEVDKAVSGLRSLTTLLRALG (Charge-modified variant of ML1) [ML1-C1] |  | 150 |
| LQRHVDKRVSGLRSLTTLLRALG (Charge-modified variant of ML1) [ML1-C2] |  | 11.8 |
| RHVQKAESGLRSLTKLLREL (Synthetic monomer) [ML2-1] | 14.3 |  |
| TRVNYQAWKR (Synthetic monomer) [ML3-1] | 4.31 |  |
| KKAVSGLKTLTHILRALGAQKEAI (Synthetic monomer) [ML4-1] | ~39.3 |  |
| AGLRSRAHLRRALA (Synthetic monomer) [ML5-1] | 78.3 |  |
| KGLRSLISLLRALGAQKEAI (Synthetic monomer) [ML6-1] | 158 |  |
| DEALDLEVDKAATGLRTLTTLIRAL (Synthetic monomer) [ML7-1] | 63.7 |  |
| NKAVAGLRSLTVN (Synthetic monomer) [ML8-1] | 2370 |  |
| LQLHVLKAVSGLLTHTTLLKALG [ML1-H1] |  | 7.85 |
| LQLHVLKAVSGLLTLTMIRRALG [ML1-H2] |  | 0.307 |
| LHVDKAVSGLRSLTTLLRAL (Synthetic monomer) [ML2] | 273 |  |
| LQLHVLKAVAGLRTLAMIRRALA [ML1-H3] |  | 1.15 |
| LQRHVKKRVKGLKSLTTLLRALG (Charge-modified variant of ML1) [ML1-C3] |  | 9.83 |
| TKVNFYAWKR (Synthetic monomer) [ML3] | 14.6 |  |
